Experiment: protein stability index of a GFP-peptide fusion (GPS, HEK-293T) (PSI 1-6); higher = more stable
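Also: lentivirally expressed fusions sorted by FACS into six bins by GFP to DsRed ratio, PSI derived from sequencing read proportions per bin multiplied by bin number.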

Question: With IIKKVAEVALDKGCSQFRLAVLDW as the protein, how does the protein stability index (parent: IOH12374_19, c terminus: a fixed tail appended) read?
Answer: 2.44

Question: Which protein stability index (parent: IOH11209_36, c terminus: native) does the source give for LTKASLKPRGCSKPPWRPPGGKL here?
Answer: 2.04

Question: For SGPEAARAGGWVSGEEFYMLTRRV, which protein stability index (parent: IOH11095_116, c terminus: a fixed tail appended) is on record?
Answer: 2.25

Question: Which protein stability index (parent: IOH12086_23, c terminus: a fixed tail appended) does the source give for ILREELQKQRLREILEQQQQERND [ZNF277 WT] here?
Answer: 4.26

Question: Which protein stability index (parent: IOH11805_4, c terminus: a fixed tail appended) does the source give for EPLPVERDPAAGAAPFRFVARPVR here?
Answer: 2.21

Question: With RDIDLKNRRGGPPFAFVEFEDPRD as the protein, how does the protein stability index (parent: IOH11039_8, c terminus: a fixed tail appended) read?
Answer: 3.81

Question: Which protein stability index (parent: IOH11742_29, c terminus: a fixed tail appended) does the source give for FLPGGDMMTLLMKKDTLTEEETQF here?
Answer: 2.21

Question: Which protein stability index (parent: IOH11065_64, c terminus: a fixed tail appended) does the source give for LREKLLEAEQSLRNLEDIHMSLEK here?
Answer: 2.56

Question: For GYGIYYFIYSTWKGRTIYLEDIYV, which protein stability index (parent: IOH12374_13, c terminus: a fixed tail appended) is on record?
Answer: 3

Question: Which protein stability index (parent: IOH11742_47, c terminus: a fixed tail appended) does the source give for RQLAYSTVGTPDYIAPEVFMQTGY here?
Answer: 2.48

Question: With LLEDMRASEAFHWDERGRAAAYSP as the protein, how does the protein stability index (parent: IOH11833_9, c terminus: a fixed tail appended) read?
Answer: 1.79

Question: For TKHKCRQLTKASLKPRGCSKPPWR, which protein stability index (parent: IOH11209_33, c terminus: a fixed tail appended) is on record?
Answer: 2.75

Question: For YARYHQAFADRDQSERQRHESQQL, which protein stability index (parent: IOH11065_9, c terminus: a fixed tail appended) is on record?
Answer: 2.09

Question: Which protein stability index (parent: IOH11355_40, c terminus: a fixed tail appended) does the source give for RGVRRTASTPTPDDKLFQKLAKVY [CPN1 WT] here?
Answer: 1.95

Question: For KYMPHLCQDSSGEVSCQCQLHPPR [MGC27345 WT], which protein stability index (parent: IOH12124_9, c terminus: a fixed tail appended) is on record?
Answer: 2

Question: Which protein stability index (parent: IOH10978_57, c terminus: a fixed tail appended) does the source give for IHSIALSTFASLIGPFGGFFASGF here?
Answer: 3.13

Question: With TLARCAKDILGFAVMFFIVFFAYA as the protein, how does the protein stability index (parent: IOH11095_79, c terminus: a fixed tail appended) read?
Answer: 2.95

Question: Which protein stability index (parent: IOH10979_2, c terminus: a fixed tail appended) does the source give for HYPFLGAMGDHSKKKPGTAMCVGC [ISL2 WT] here?
Answer: 2.74

Question: For IKRTIRVLDVNNQSFREQEEPSNK, which protein stability index (parent: IOH11256_3, c terminus: a fixed tail appended) is on record?
Answer: 3.53

Question: For VGAAGSARQELLGDRPRWQRLLGE, which protein stability index (parent: IOH11833_41, c terminus: a fixed tail appended) is on record?
Answer: 3.32

Question: For YSGGGYYLDLPGSRQGSAEALRAL, which protein stability index (parent: IOH11095_45, c terminus: a fixed tail appended) is on record?
Answer: 1.95

Question: With CTACGSVLEDNIIVSEVQFVESSG as the protein, how does the protein stability index (parent: IOH11305_5, c terminus: a fixed tail appended) read?
Answer: 3.03

Question: For NWKETLVFPPEVPISEKAKDLILR, which protein stability index (parent: IOH11742_57, c terminus: a fixed tail appended) is on record?
Answer: 3.08

Question: Which protein stability index (parent: IOH11244_11, c terminus: a fixed tail appended) does the source give for YLDPSVLSGVSCFVMFLCLADYLV [ARL6IP1 WT] here?
Answer: 2.87

Question: With AAPFRFVARPVRFPREHQFFEDGD as the protein, how does the protein stability index (parent: IOH11805_6, c terminus: a fixed tail appended) read?
Answer: 2.1

Question: Which protein stability index (parent: IOH11095_61, c terminus: a fixed tail appended) does the source give for VFIFYYVVEEILELHIHRLRYLSS here?
Answer: 2.92

Question: For PTPAKRRSSALWSEMLDITMKESL, which protein stability index (parent: IOH11256_16, c terminus: a fixed tail appended) is on record?
Answer: 2.21

Question: Which protein stability index (parent: IOH11779_7, c terminus: a fixed tail appended) does the source give for AEVSWEPGRREGCDICAGKAGCPI [RPS21 WT] here?
Answer: 3.06

Question: With SSKSRAAPSPQEALVRLRETEEML as the protein, how does the protein stability index (parent: IOH12461_3, c terminus: a fixed tail appended) read?
Answer: 1.94

Question: For FVESSGGGSSAVGQFVSLDGAGKT, which protein stability index (parent: IOH11305_8, c terminus: a fixed tail appended) is on record?
Answer: 2.44

Question: For FAPLLDEQYDLATKRVRQLLDLDP [GOLPH3 WT], which protein stability index (parent: IOH12568_43, c terminus: a fixed tail appended) is on record?
Answer: 2.12

Question: Which protein stability index (parent: IOH12660_34, c terminus: a fixed tail appended) does the source give for DLKDDGNMMKVLRGHQNWVYSCAF here?
Answer: 2

Question: With YSPRRSRGSPRYSPRHSRSRSRT as the protein, how does the protein stability index (parent: IOH11039_42, c terminus: native) read?
Answer: 3.93

Question: For LYKEELEQTYHAKLENARLSSEMN [LMNB1 WT], which protein stability index (parent: IOH11078_44, c terminus: a fixed tail appended) is on record?
Answer: 2.79

Question: Which protein stability index (parent: IOH10978_35, c terminus: a fixed tail appended) does the source give for LIVVTQSHLVIHNLFEGMIWFIVP here?
Answer: 2.99

Question: For IAQYALLGYFIRSWRTLAILVNLQ [SLC22A15 WT], which protein stability index (parent: IOH10897_34, c terminus: a fixed tail appended) is on record?
Answer: 2.63

Question: With TNIRLPNVPSSSLPAQPNRKPGMS as the protein, how does the protein stability index (parent: IOH12461_31, c terminus: a fixed tail appended) read?
Answer: 4.51

Question: With YQNHKITQLKIENNPFAKGFRGSD as the protein, how does the protein stability index (parent: IOH11603_37, c terminus: a fixed tail appended) read?
Answer: 2.57

Question: Which protein stability index (parent: IOH11256_7, c terminus: a fixed tail appended) does the source give for RVRPLARVTSLANLISPVRNGAVR here?
Answer: 3.05

Question: With FDALDDYEHHYHTLHGNVCSFCKR as the protein, how does the protein stability index (parent: IOH11805_16, c terminus: a fixed tail appended) read?
Answer: 3.55

Question: With YSGAYGASVSDEELKRRVAEELAL [CHCHD3 WT] as the protein, how does the protein stability index (parent: IOH11162_9, c terminus: a fixed tail appended) read?
Answer: 2.57

Question: With FCIDSENRIGNSGVEEIKGHPFFE as the protein, how does the protein stability index (parent: IOH11742_61, c terminus: a fixed tail appended) read?
Answer: 2.18

Question: Which protein stability index (parent: IOH10770_74, c terminus: a fixed tail appended) does the source give for FAPQTGARPSETFARFCKSQESAL [C19orf51 WT] here?
Answer: 2.22

Question: With FHEVGTEMIITKAGRRMFPSYKVK as the protein, how does the protein stability index (parent: IOH11603_12, c terminus: a fixed tail appended) read?
Answer: 2.15

Question: For LTEAEGWHFFCFQGEATRKLAGK, which protein stability index (parent: IOH12374_27, c terminus: native) is on record?
Answer: 2.13

Question: Which protein stability index (parent: IOH11059_14, c terminus: a fixed tail appended) does the source give for FSDSSMDHFQKFLPTVGGQLGTAG [MYOZ1 WT] here?
Answer: 2.43

Question: With SEVEELNMSLTALREKLLEAEQSL as the protein, how does the protein stability index (parent: IOH11065_62, c terminus: a fixed tail appended) read?
Answer: 2.99

Question: With FPESETKECPFRVNKVCGAACSSK [SERPINB5 WT] as the protein, how does the protein stability index (parent: IOH12329_30, c terminus: a fixed tail appended) read?
Answer: 2.39

Question: With QLDWDELETNQQHFHALCHSLLVS [C2orf65 WT] as the protein, how does the protein stability index (parent: IOH10869_57, c terminus: a fixed tail appended) read?
Answer: 2.16

Question: For YPEDSSWAAKAPGASSREEPPEEP [SPDEF WT], which protein stability index (parent: IOH12673_12, c terminus: a fixed tail appended) is on record?
Answer: 4.25

Question: With YEHHYHTLHGNVCSFCKRAFPSGH as the protein, how does the protein stability index (parent: IOH11805_17, c terminus: a fixed tail appended) read?
Answer: 2.07

Question: For FSHDGLHVASLADDKMVRFWRIDE, which protein stability index (parent: IOH12660_54, c terminus: a fixed tail appended) is on record?
Answer: 1.85

Question: Which protein stability index (parent: IOH11805_29, c terminus: a fixed tail appended) does the source give for HLYPADFRFDKPKKSRSPASAEAP here?
Answer: 2.92

From the supplement of paper PMC10567573
